Measurements published in PMC10348774.

B1: ADAM metallopeptidase domain 10 (ADAM10): tunicamycin (protein)
parent chain: MVLLRVLILLLSWAAGMGGQYGNPLNKYIRHYEGLSYNVDSLHQKHQRAKRAVSHEDQFLRLDFHAHGRHFNLRMKRDTSLFSDEFKVETSNKVLDYDTSHIYTGHIYGEEGSFSHGSVIDGRFEGFIQTRGGTFYVEPAERYIKDRTLPFHSVIYHEDDINYPHKYGPQGGCADHSVFERMRKYQMTGVEEVTQIPQEEHAANGPELLRKKRTTSAEKNTCQLYIQTDHLFFKYYGTREAVIAQISSHVKAIDTIYQTTDFSGIRNISFMVKRIRINTTADEKDPTNPFRFPNIGVEKFLELNSEQNHDDYCLAYVFTDRDFDDGVLGLAWVGAPSGSSGGICEKSKLYSDGKKKSLNTGIITVQNYGSHVPPKVSHITFAHEVGHNFGSPHDSGTECTPGESKNLGQKENGNYIMYARATSGDKLNNNKFSLCSIRNISQVLEKKRNNCFVESGQPICGNGMVEQGEECDCGYSDQCKDECCFDANQPEGRKCKLKPGKQCSPSQGPCCTAQCAFKSKSEKCRDDSDCAREGICNGFTALCPASDPKPNFTDCNRHTQVCINGQCAGSICEKYGLEECTCASSDGKDDKELCHVCCMKKMDPSTCASTGSVQWSRHFSGRTITLQPGSPCNDFRGYCDVFMRCRLVDADGPLARLKKAIFSPELYENIAEWIVAHWWAVLLMGIALIMLMAGFIKICSVHTPSSNPKLPPPKPLPGTLKRRRPPQPIQQPQRQRPRESYQMGHMRR
B2: ADAM metallopeptidase domain 10 (ADAM10): N278Q (protein)
parent chain: MVLLRVLILLLSWAAGMGGQYGNPLNKYIRHYEGLSYNVDSLHQKHQRAKRAVSHEDQFLRLDFHAHGRHFNLRMKRDTSLFSDEFKVETSNKVLDYDTSHIYTGHIYGEEGSFSHGSVIDGRFEGFIQTRGGTFYVEPAERYIKDRTLPFHSVIYHEDDINYPHKYGPQGGCADHSVFERMRKYQMTGVEEVTQIPQEEHAANGPELLRKKRTTSAEKNTCQLYIQTDHLFFKYYGTREAVIAQISSHVKAIDTIYQTTDFSGIRNISFMVKRIRINTTADEKDPTNPFRFPNIGVEKFLELNSEQNHDDYCLAYVFTDRDFDDGVLGLAWVGAPSGSSGGICEKSKLYSDGKKKSLNTGIITVQNYGSHVPPKVSHITFAHEVGHNFGSPHDSGTECTPGESKNLGQKENGNYIMYARATSGDKLNNNKFSLCSIRNISQVLEKKRNNCFVESGQPICGNGMVEQGEECDCGYSDQCKDECCFDANQPEGRKCKLKPGKQCSPSQGPCCTAQCAFKSKSEKCRDDSDCAREGICNGFTALCPASDPKPNFTDCNRHTQVCINGQCAGSICEKYGLEECTCASSDGKDDKELCHVCCMKKMDPSTCASTGSVQWSRHFSGRTITLQPGSPCNDFRGYCDVFMRCRLVDADGPLARLKKAIFSPELYENIAEWIVAHWWAVLLMGIALIMLMAGFIKICSVHTPSSNPKLPPPKPLPGTLKRRRPPQPIQQPQRQRPRESYQMGHMRR
B3: ADAM metallopeptidase domain 10 (ADAM10): N267Q (protein)
parent chain: MVLLRVLILLLSWAAGMGGQYGNPLNKYIRHYEGLSYNVDSLHQKHQRAKRAVSHEDQFLRLDFHAHGRHFNLRMKRDTSLFSDEFKVETSNKVLDYDTSHIYTGHIYGEEGSFSHGSVIDGRFEGFIQTRGGTFYVEPAERYIKDRTLPFHSVIYHEDDINYPHKYGPQGGCADHSVFERMRKYQMTGVEEVTQIPQEEHAANGPELLRKKRTTSAEKNTCQLYIQTDHLFFKYYGTREAVIAQISSHVKAIDTIYQTTDFSGIRNISFMVKRIRINTTADEKDPTNPFRFPNIGVEKFLELNSEQNHDDYCLAYVFTDRDFDDGVLGLAWVGAPSGSSGGICEKSKLYSDGKKKSLNTGIITVQNYGSHVPPKVSHITFAHEVGHNFGSPHDSGTECTPGESKNLGQKENGNYIMYARATSGDKLNNNKFSLCSIRNISQVLEKKRNNCFVESGQPICGNGMVEQGEECDCGYSDQCKDECCFDANQPEGRKCKLKPGKQCSPSQGPCCTAQCAFKSKSEKCRDDSDCAREGICNGFTALCPASDPKPNFTDCNRHTQVCINGQCAGSICEKYGLEECTCASSDGKDDKELCHVCCMKKMDPSTCASTGSVQWSRHFSGRTITLQPGSPCNDFRGYCDVFMRCRLVDADGPLARLKKAIFSPELYENIAEWIVAHWWAVLLMGIALIMLMAGFIKICSVHTPSSNPKLPPPKPLPGTLKRRRPPQPIQQPQRQRPRESYQMGHMRR
B4: ADAM metallopeptidase domain 10 (ADAM10): DPAGT1 silencing (protein)
parent chain: MVLLRVLILLLSWAAGMGGQYGNPLNKYIRHYEGLSYNVDSLHQKHQRAKRAVSHEDQFLRLDFHAHGRHFNLRMKRDTSLFSDEFKVETSNKVLDYDTSHIYTGHIYGEEGSFSHGSVIDGRFEGFIQTRGGTFYVEPAERYIKDRTLPFHSVIYHEDDINYPHKYGPQGGCADHSVFERMRKYQMTGVEEVTQIPQEEHAANGPELLRKKRTTSAEKNTCQLYIQTDHLFFKYYGTREAVIAQISSHVKAIDTIYQTTDFSGIRNISFMVKRIRINTTADEKDPTNPFRFPNIGVEKFLELNSEQNHDDYCLAYVFTDRDFDDGVLGLAWVGAPSGSSGGICEKSKLYSDGKKKSLNTGIITVQNYGSHVPPKVSHITFAHEVGHNFGSPHDSGTECTPGESKNLGQKENGNYIMYARATSGDKLNNNKFSLCSIRNISQVLEKKRNNCFVESGQPICGNGMVEQGEECDCGYSDQCKDECCFDANQPEGRKCKLKPGKQCSPSQGPCCTAQCAFKSKSEKCRDDSDCAREGICNGFTALCPASDPKPNFTDCNRHTQVCINGQCAGSICEKYGLEECTCASSDGKDDKELCHVCCMKKMDPSTCASTGSVQWSRHFSGRTITLQPGSPCNDFRGYCDVFMRCRLVDADGPLARLKKAIFSPELYENIAEWIVAHWWAVLLMGIALIMLMAGFIKICSVHTPSSNPKLPPPKPLPGTLKRRRPPQPIQQPQRQRPRESYQMGHMRR
B5: ADAM metallopeptidase domain 10 (ADAM10): DPAGT1 inhibition/knockdown + Eer I or MG132 (protein)
parent chain: MVLLRVLILLLSWAAGMGGQYGNPLNKYIRHYEGLSYNVDSLHQKHQRAKRAVSHEDQFLRLDFHAHGRHFNLRMKRDTSLFSDEFKVETSNKVLDYDTSHIYTGHIYGEEGSFSHGSVIDGRFEGFIQTRGGTFYVEPAERYIKDRTLPFHSVIYHEDDINYPHKYGPQGGCADHSVFERMRKYQMTGVEEVTQIPQEEHAANGPELLRKKRTTSAEKNTCQLYIQTDHLFFKYYGTREAVIAQISSHVKAIDTIYQTTDFSGIRNISFMVKRIRINTTADEKDPTNPFRFPNIGVEKFLELNSEQNHDDYCLAYVFTDRDFDDGVLGLAWVGAPSGSSGGICEKSKLYSDGKKKSLNTGIITVQNYGSHVPPKVSHITFAHEVGHNFGSPHDSGTECTPGESKNLGQKENGNYIMYARATSGDKLNNNKFSLCSIRNISQVLEKKRNNCFVESGQPICGNGMVEQGEECDCGYSDQCKDECCFDANQPEGRKCKLKPGKQCSPSQGPCCTAQCAFKSKSEKCRDDSDCAREGICNGFTALCPASDPKPNFTDCNRHTQVCINGQCAGSICEKYGLEECTCASSDGKDDKELCHVCCMKKMDPSTCASTGSVQWSRHFSGRTITLQPGSPCNDFRGYCDVFMRCRLVDADGPLARLKKAIFSPELYENIAEWIVAHWWAVLLMGIALIMLMAGFIKICSVHTPSSNPKLPPPKPLPGTLKRRRPPQPIQQPQRQRPRESYQMGHMRR

Tests used:
[1] = IB of endogenous pre- and matADAM10; details: glycan lost; control: untreated / vector SK-BR-3
[2] = flow cytometry of membrane ADAM10; details: glycan lost; control: control SK-BR-3
[3] = IB and IF with ER marker Calnexin; details: glycan lost; control: wild type (implied)
[4] = IB of precursor and mature forms; details: glycan lost; control: wild type (implied)
[5] = IB after Eer I or MG132 rescue; details: glycan lost; control: untreated SK-BR-3

| Protein | expression_or_secretion [1] | localisation_or_trafficking [2] | further results |
| --- | --- | --- | --- |
| B1 | decreases | decreases |  |
| B2 |  |  | localisation_or_trafficking [3]: changes |
| B3 |  |  | other: proteolytic processing [4]: no change |
| B4 | decreases | decreases |  |
| B5 |  |  | other: proteolytic processing [5]: abolishes |
